The text below walks through data of PMC6453779, “The Different Effects of Substrates and Nucleotides on the Complex Formation of ABC Transporters” (Structure(London, England:1993), 2019).

For experiment [1], the target named is T1, BtuCD-F (Escherichia coli, UniProt P06611).
T1 construct: gene btuD; BtuC2D2-F complex; BtuCD from pET19b-BtuCD in E. coli BL21(DE3), LDAO purified, MS in C8E4; BtuF residues 23-266; theoretical mass 158,253 Da; with Vitamin B12 import system permease protein BtuC
T1 sequence (P06611 1-249): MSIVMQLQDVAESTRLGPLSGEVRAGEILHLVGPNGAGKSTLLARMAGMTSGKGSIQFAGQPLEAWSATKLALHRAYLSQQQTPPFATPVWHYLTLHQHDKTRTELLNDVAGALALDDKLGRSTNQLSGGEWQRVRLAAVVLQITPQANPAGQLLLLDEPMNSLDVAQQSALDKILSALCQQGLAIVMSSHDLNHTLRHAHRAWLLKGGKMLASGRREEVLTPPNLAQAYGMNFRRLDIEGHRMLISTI
T1 sequence (P06609 1-326 partner): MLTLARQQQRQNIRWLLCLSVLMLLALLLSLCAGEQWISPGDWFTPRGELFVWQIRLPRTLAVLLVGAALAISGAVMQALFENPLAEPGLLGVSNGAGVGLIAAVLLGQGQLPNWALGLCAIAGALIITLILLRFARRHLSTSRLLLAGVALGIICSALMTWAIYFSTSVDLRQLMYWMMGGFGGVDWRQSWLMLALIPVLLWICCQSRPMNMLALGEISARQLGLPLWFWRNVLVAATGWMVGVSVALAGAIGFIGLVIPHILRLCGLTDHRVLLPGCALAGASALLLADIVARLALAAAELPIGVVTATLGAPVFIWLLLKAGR
T1 sequence (P37028 23-266 partner): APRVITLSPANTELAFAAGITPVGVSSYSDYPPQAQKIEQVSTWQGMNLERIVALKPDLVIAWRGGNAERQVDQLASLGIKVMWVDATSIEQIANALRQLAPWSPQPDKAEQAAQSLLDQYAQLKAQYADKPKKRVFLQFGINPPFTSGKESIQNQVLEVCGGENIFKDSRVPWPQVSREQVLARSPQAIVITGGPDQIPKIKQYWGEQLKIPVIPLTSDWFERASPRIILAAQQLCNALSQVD
In words: native mass spectrometry. To be noted: then BtuF, C8E4. The format is binding.

Experiment [2] deals with T2, BtuCD (Escherichia coli, UniProt P06611).
T2 construct: gene btuD; BtuC2D2 tetramer without BtuF; pET19b-BtuCD in E. coli BL21(DE3), LDAO purified, MS in C8E4; theoretical mass 128,839 Da; with Vitamin B12 import system permease protein BtuC
T2 sequence (P06611 1-249): T1 sequence (P06611 1-249)
T2 sequence (P06609 1-326 partner): T1 sequence (P06609 1-326 partner)
In words: native mass spectrometry. The format is binding. The note with it: free BtuCD population beside BtuCD-F, C8E4.

Experiment [3] has as its target T3, ModBC-A⋅MoO4^2− (nucleotide row) (Archaeoglobus fulgidus, UniProt O30144).
T3 construct: gene wtpC; nucleotide site on the NBDs (ModC); with Molybdate/tungstate transport system permease protein WtpB
In words: native mass spectrometry. The note with it: 10 uM ATP and MgCl2 added to ModBC, ModA preloaded with molybdate; one and two ADP bound; C8E4. The format is binding.

For experiment [4], the target named is T4, ModB, transmembrane subunit of ModBC of Archaeoglobus fulgidus (A. fulgidus, UniProt O30143 1-261).
T4 construct: ModB, transmembrane subunit of the molybdate importer ModBC, A. fulgidus; construct pET19b-ModBC; source: E. coli BL21(DE3), co-purified as ModBC from membranes (DDM and C12E8, HisTrap, SEC)
T4 sequence: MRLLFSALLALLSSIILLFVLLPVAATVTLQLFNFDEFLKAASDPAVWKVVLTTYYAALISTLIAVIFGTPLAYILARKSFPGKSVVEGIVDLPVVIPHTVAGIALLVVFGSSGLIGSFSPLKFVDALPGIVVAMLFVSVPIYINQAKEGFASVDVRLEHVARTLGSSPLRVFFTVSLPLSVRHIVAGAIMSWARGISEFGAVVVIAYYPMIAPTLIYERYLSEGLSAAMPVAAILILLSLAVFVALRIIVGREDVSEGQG
In words: native MS; co-expressed and co-purified transporter alone, buffer exchanged into 200 mM ammonium acetate with 0.5% C8E4. The note with it: both partners purified.

The target in experiment [5] is T5, BtuC, transmembrane subunit of BtuCD of Escherichia coli (E. coli, UniProt P06609 1-326).
T5 construct: BtuC, transmembrane subunit of the vitamin B12 importer BtuCD, E. coli; construct pET19b-BtuCD; source: E. coli BL21(DE3), co-purified as BtuCD from membranes (LDAO, HisTrap, SEC)
T5 sequence: T1 sequence (P06609 1-326 partner)
The description is as above. To be noted: both partners purified.

The target of experiment [6] is T6, vitamin B12 transporter BtuCD (BtuC2D2) of Escherichia coli (E. coli, UniProt P06609 1-326; P06611 1-249).
T6 construct: BtuC, transmembrane subunit of the vitamin B12 importer BtuCD, E. coli; construct pET19b-BtuCD, gift from Kaspar Locher; Purified on a HisTrap column from pET19b-BtuCD; also called tetrameric transporter; source: E. coli BL21(DE3), purified from membranes (LDAO, HisTrap, Superdex 200 SEC); copies: 2 + 2
T6 sequence 1: T1 sequence (P06609 1-326 partner)
T6 sequence 2: T1 sequence (P06611 1-249)
Briefly: native MS; BtuF and BtuCD incubated in a 1:2 molar ratio (BtuF:BtuCD) in 200 mM ammonium acetate with 0.5% C8E4; without ligand, or with 2 mM vitamin B12, dicyanocobinamide or vitamin B9 added to BtuF before buffer exchange, or 5 mM ATP/MgCl2 or 5 mM AMP-PNP added to BtuCD before buffer exchange, or vitamin B12 and ATP together. The note with it: both partners purified.

T3 sequence (O30142 32-342 partner, one chain of several): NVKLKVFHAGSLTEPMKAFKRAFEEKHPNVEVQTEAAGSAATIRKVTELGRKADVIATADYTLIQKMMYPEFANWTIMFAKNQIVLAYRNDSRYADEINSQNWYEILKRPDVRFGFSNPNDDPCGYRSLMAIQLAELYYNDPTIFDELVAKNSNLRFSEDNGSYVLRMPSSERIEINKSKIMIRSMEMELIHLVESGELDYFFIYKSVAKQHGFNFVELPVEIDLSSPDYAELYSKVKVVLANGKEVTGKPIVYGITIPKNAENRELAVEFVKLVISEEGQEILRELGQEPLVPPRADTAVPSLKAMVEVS

For `Nc1ncnc2c1ncn2[C@@H]1O[C@H](COP(=O)(O)OP(=O)(O)O)[C@@H](O)[C@H]1O` [ADP], the “observed mass of complex” value is “two nucleotide-bound states with one and two ADP molecules bound” in experiment [1] (5 mM ATP and 5 mM MgCl2 added to BtuCD before buffer exchange, one and two ADP bound); “an apo form and the species bound to one and two ADP molecules” in experiment [3]. Also, in experiment [2] (5 mM ATP and 5 mM MgCl2 added before buffer exchange), the “bound species by mass” value is “The presence of ADP-bound species of both BtuCD-F and BtuCD are observed”.

With `Nc1ncnc2c1ncn2[C@@H]1O[C@H](COP(=O)(O)OP(=O)(O)NP(=O)(O)O)[C@@H](O)[C@H]1O` [AMP-PNP, Adenosine 5’-(β,γ-imido)triphosphate], the “observed mass of complex” value in experiment [1] (5 mM AMP-PNP added to BtuCD before buffer exchange, two bound) is “apo-BtuCD-F as well as a population assigned to BtuCD-F⋅2AMP-PNP”. In addition, in experiment [2] (5 mM AMP-PNP added before buffer exchange), the “bound species by mass” value was “BtuCD was bound to the two different nucleotides in a similar fashion”.

B1: ModC, nucleotide binding subunit of ModBC of Archaeoglobus fulgidus (natural protein, A. fulgidus)
chain: MFLKVRAEKRLGNFRLNVDFEMGRDYCVLLGPTGAGKSVFLELIAGIVKPDRGEVRLNGADITPLPPERRGIGFVPQDYALFPHLSVYRNIAYGLRNVERVERDRRVREMAEKLGIAHLLDRKPARLSGGERQRVALARALVIQPRLLLLDEPLSAVDLKTKGVLMEELRFVQREFDVPILHVTHDLIEAAMLADEVAVMLNGRIVEKGKLKELFSAKNGEVAEFLSARNLLLKVSKILD
notes: construct pET19b-ModBC; source: E. coli BL21(DE3), co-purified as ModBC from membranes (DDM and C12E8, HisTrap, SEC)
For B1, the binding result in experiment [4] is given as “binds”.

B2: BtuD, nucleotide binding subunit of BtuCD of Escherichia coli (natural protein, E. coli)
chain: T1 sequence (P06611 1-249)
notes: construct pET19b-BtuCD; source: E. coli BL21(DE3), co-purified as BtuCD from membranes (LDAO, HisTrap, SEC)
For B2, the binding result in experiment [5] is given as “binds”.

B3: periplasmic vitamin B12 substrate-binding protein BtuF of Escherichia coli (aa 23-266) (natural protein, E. coli, UniProt P37028 23-266, looked up)
chain: T1 sequence (P37028 23-266 partner)
notes: also called SBP; source: E. coli BL21(DE3), purified (HisTrap, SEC; same protocol as ModA, final buffer with 10 mM DTT)
As for B3, in experiment [6], the “uncomplexed BtuCD relative to BtuCD-F (100%), with dicyanocobinamide” value was 44%; the “uncomplexed BtuCD relative to BtuCD-F (100%), with vitamin B9” value turned out to be 15%; the “uncomplexed BtuCD relative to BtuCD-F (100%), with vitamin B12” value was 45%; the “uncomplexed BtuCD relative to BtuCD-F, no substrate” value was found to be 10%. Moreover, in experiment [6], the “uncomplexed BtuCD relative to BtuCD-F, with AMP-PNP” value turned out to be 43% and the “uncomplexed BtuCD relative to BtuCD-F, with ATP” value was 40%.
